Laboratory results published in paper PMC9482650, “Quantitative fragmentomics allow affinity mapping of interactomes” (Nature Communications, 2022).

T1: DFNB31_1, Q9P202
T1 sequence (Q9P202 135-233, limits assumed, looked up): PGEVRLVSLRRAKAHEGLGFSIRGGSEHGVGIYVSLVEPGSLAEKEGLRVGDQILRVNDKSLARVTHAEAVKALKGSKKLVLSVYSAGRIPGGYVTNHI

T2: LRRC7, Q96NW7
T2 sequence (Q96NW7 1440-1537, limits assumed, looked up): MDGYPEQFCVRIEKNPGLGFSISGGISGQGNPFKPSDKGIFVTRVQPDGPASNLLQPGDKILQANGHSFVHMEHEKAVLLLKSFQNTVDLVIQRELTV

T3: MPDZ_12, O75970
T3 sequence (O75970 1857-1958, limits assumed, looked up): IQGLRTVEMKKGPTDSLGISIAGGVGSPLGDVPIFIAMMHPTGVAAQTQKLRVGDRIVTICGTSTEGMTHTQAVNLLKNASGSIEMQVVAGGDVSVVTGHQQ

T4: SYNJ2BP, P57105
T4 sequence (P57105 8-110, limits assumed, looked up): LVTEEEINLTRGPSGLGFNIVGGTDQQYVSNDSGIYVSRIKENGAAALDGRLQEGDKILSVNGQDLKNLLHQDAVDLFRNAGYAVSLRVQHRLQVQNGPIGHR

T5: LIN7C, Q9NUP9
T5 sequence (Q9NUP9 88-185, limits assumed, looked up): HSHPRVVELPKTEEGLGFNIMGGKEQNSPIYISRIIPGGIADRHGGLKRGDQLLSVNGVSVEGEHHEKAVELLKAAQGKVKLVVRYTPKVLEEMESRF

T6: TJP3_3, O95049
T6 sequence (O95049 375-456, limits assumed, looked up): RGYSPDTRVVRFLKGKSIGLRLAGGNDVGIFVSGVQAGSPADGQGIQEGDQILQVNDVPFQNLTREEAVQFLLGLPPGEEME

T7: RHPN1, Q8TCX5
T7 sequence (Q8TCX5 508-602, limits assumed, looked up): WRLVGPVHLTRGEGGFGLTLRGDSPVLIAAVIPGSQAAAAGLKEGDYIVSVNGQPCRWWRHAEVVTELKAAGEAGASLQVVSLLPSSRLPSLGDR

T8: SHANK1, Q9Y566
T8 sequence (Q9Y566 658-767, limits assumed, looked up): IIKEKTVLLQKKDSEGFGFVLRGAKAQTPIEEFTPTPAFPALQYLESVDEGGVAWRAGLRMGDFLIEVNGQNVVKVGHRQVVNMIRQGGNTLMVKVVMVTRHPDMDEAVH

T9: SNTG2, Q9NY99
T9 sequence (Q9NY99 68-166, limits assumed, looked up): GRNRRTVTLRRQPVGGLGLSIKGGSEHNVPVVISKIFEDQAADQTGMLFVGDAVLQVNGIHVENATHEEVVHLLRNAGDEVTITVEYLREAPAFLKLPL


How the values were obtained:
Test in all cases: holdup assay
Parameters in all cases: key: below the threshold = too weak to quantify, mostly under pKd 3.1 to 4
Conditions in all cases: plain residues with an end cap or a label only (N-terminal biotin on a linker: ado-ado)
DFNB31_1, Q9P202 = target: T1, DFNB31_1, Q9P202
LRRC7, Q96NW7 = target: T2, LRRC7, Q96NW7
MPDZ_12, O75970 = target: T3, MPDZ_12, O75970
PICK1, Q9NRD5 = target: PICK1, Q9NRD5
SYNJ2BP, P57105 = target: T4, SYNJ2BP, P57105
FRMPD4, Q14CM0 = target: FRMPD4, Q14CM0
MAGI1_1, Q96QZ7 = target: MAGI1_1, Q96QZ7
LIN7C, Q9NUP9 = target: T5, LIN7C, Q9NUP9
SCRIB_2, Q14160 = target: SCRIB_2, Q14160
IL16_3, Q14005 = target: IL16_3, Q14005
TJP3_3, O95049 = target: T6, TJP3_3, O95049
MAGI3_2, Q5TCQ9 = target: MAGI3_2, Q5TCQ9
TJP2_1, Q9UDY2 = target: TJP2_1, Q9UDY2
PDZRN4_1, Q6ZMN7 = target: PDZRN4_1, Q6ZMN7
DLG1_2, Q12959 = target: DLG1_2, Q12959
DLG4_2, P78352 = target: DLG4_2, P78352
FRMPD3, Q5JV73 = target: FRMPD3, Q5JV73
LNX1_1, Q8TBB1 = target: LNX1_1, Q8TBB1
FRMPD2_1, Q68DX3 = target: FRMPD2_1, Q68DX3
RHPN1, Q8TCX5 = target: T7, RHPN1, Q8TCX5
SHANK1, Q9Y566 = target: T8, SHANK1, Q9Y566
NHERF4_1, Q86UT5-2 = target: NHERF4_1, Q86UT5-2
HTRA2, O43464 = target: HTRA2, O43464
FRMPD2_3, Q68DX3 = target: FRMPD2_3, Q68DX3
Inadl_8, Q8NI35 = target: Inadl_8, Q8NI35
SNTG2, Q9NY99 = target: T9, SNTG2, Q9NY99
Inadl_5, Q8NI35 = target: Inadl_5, Q8NI35
Inadl_10, Q8NI35 = target: Inadl_10, Q8NI35
Inadl_10, Q8NI35, sequence (Q8NI35 1673-1763): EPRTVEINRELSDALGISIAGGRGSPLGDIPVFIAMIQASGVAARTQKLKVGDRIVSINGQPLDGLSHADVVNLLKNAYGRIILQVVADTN

FRMPD2_1, Q68DX3, sequence (Q68DX3 770-861): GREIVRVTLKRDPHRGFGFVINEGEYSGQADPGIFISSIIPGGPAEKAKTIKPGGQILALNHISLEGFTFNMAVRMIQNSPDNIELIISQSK
IL16_3, Q14005, sequence (Q14005 1107-1207): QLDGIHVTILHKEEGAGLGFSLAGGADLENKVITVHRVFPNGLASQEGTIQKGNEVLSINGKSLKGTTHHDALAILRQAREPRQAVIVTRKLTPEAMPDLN
SCRIB_2, Q14160, sequence (Q14160 857-960): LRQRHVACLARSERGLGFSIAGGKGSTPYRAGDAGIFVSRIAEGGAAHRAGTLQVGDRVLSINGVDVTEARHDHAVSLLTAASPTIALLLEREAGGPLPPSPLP
PDZRN4_1, Q6ZMN7, sequence (Q6ZMN7 213-318): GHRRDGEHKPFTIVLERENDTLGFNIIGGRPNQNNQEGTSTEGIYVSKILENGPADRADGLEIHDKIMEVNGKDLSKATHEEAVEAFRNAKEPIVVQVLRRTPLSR
HTRA2, O43464, sequence (O43464 355-458): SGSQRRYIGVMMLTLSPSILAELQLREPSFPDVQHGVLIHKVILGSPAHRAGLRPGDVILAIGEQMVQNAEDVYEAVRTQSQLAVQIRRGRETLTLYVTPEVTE
FRMPD3, Q5JV73, sequence (Q5JV73 12-100): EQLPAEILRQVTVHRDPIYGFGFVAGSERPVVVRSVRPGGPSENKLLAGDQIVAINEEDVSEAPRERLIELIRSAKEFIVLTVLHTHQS
DLG4_2, P78352, sequence (P78352 155-259): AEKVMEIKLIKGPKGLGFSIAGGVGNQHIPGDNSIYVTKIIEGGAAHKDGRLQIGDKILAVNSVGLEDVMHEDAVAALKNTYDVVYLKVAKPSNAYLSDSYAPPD
MAGI3_2, Q5TCQ9, sequence (Q5TCQ9 398-503): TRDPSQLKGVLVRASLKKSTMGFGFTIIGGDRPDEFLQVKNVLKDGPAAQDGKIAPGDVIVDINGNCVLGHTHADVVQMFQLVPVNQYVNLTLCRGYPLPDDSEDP
TJP2_1, Q9UDY2, sequence (Q9UDY2 24-128): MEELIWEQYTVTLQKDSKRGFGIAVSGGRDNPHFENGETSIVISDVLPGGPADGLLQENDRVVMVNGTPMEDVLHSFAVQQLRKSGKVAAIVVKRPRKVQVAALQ
DLG1_2, Q12959, sequence (Q12959 314-412): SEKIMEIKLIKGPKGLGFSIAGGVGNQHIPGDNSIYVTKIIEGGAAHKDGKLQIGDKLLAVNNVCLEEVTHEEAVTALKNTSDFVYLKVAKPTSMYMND
Inadl_5, Q8NI35, sequence (Q8NI35 673-780): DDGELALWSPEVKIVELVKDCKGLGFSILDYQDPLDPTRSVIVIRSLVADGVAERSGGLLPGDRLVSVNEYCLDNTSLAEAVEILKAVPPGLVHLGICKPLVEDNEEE
PICK1, Q9NRD5, sequence (Q9NRD5 17-115): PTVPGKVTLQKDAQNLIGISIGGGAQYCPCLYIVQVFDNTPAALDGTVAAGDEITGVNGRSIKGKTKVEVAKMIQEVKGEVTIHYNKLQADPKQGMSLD
LNX1_1, Q8TBB1, sequence (Q8TBB1 261-371): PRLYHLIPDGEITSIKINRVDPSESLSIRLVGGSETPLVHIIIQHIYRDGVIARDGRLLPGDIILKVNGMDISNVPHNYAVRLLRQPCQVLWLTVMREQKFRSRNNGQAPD
FRMPD2_3, Q68DX3, sequence (Q68DX3 1073-1166): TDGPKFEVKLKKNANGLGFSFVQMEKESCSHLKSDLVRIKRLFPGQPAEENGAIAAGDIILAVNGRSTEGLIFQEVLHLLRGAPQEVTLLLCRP
MAGI1_1, Q96QZ7, sequence (Q96QZ7 1-106): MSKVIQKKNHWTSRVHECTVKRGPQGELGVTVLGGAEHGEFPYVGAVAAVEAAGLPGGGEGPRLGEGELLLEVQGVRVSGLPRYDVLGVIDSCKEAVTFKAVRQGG
NHERF4_1, Q86UT5-2, sequence (Q86UT5 other isoform, or with tags, fused parts or gaps): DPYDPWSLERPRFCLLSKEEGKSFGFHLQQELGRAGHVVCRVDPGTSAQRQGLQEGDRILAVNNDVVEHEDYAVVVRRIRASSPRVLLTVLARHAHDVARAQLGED
FRMPD4, Q14CM0, sequence (Q14CM0 67-160): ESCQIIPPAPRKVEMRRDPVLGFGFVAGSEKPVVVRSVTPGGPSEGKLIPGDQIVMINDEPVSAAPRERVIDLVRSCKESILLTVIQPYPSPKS
Inadl_8, Q8NI35, sequence (Q8NI35 1425-1530): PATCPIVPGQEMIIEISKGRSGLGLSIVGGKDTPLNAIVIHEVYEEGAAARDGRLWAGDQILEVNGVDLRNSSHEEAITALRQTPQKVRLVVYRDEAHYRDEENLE

| Binder | pKd (DFNB31_1, Q9P202) | pKd (LRRC7, Q96NW7) | pKd (MPDZ_12, O75970) | pKd (PICK1, Q9NRD5) | pKd (SYNJ2BP, P57105) | pKd (FRMPD4, Q14CM0) | pKd (MAGI1_1, Q96QZ7) | pKd (LIN7C, Q9NUP9) | pKd (SCRIB_2, Q14160) | pKd (IL16_3, Q14005) | pKd (TJP3_3, O95049) | pKd (MAGI3_2, Q5TCQ9) | pKd (TJP2_1, Q9UDY2) | pKd (PDZRN4_1, Q6ZMN7) | pKd (DLG1_2, Q12959) | pKd (DLG4_2, P78352) | pKd (FRMPD3, Q5JV73) | pKd (LNX1_1, Q8TBB1) | pKd (FRMPD2_1, Q68DX3) | pKd (RHPN1, Q8TCX5) | also measured |
| --- | --- | --- | --- | --- | --- | --- | --- | --- | --- | --- | --- | --- | --- | --- | --- | --- | --- | --- | --- | --- | --- |
| QSYPSKHDYV [CLDN18, P56856] | 3.49 | below the threshold | below the threshold | 4.26 | below the threshold | 3.57 | below the threshold | below the threshold | below the threshold | below the threshold | 4.02 | below the threshold | 4.16 | below the threshold | 3.71 | 3.56 | below the threshold | 3.73 | below the threshold | below the threshold | pKd (SHANK1, Q9Y566): below the threshold; pKd (NHERF4_1, Q86UT5-2): 3.81; pKd (HTRA2, O43464): 3.71; pKd (FRMPD2_3, Q68DX3): below the threshold; pKd (Inadl_8, Q8NI35): 4.22; pKd (SNTG2, Q9NY99): below the threshold; pKd (Inadl_5, Q8NI35): 3.57; pKd (Inadl_10, Q8NI35): below the threshold |
| EPQYQPGENL [SRC, P12931] | below the threshold | below the threshold | below the threshold | below the threshold | below the threshold | 4.12 | below the threshold | below the threshold | below the threshold | below the threshold | below the threshold | below the threshold | below the threshold | 3.52 | below the threshold | below the threshold | below the threshold | below the threshold | below the threshold | below the threshold | pKd (SHANK1, Q9Y566): below the threshold; pKd (NHERF4_1, Q86UT5-2): 3.59; pKd (HTRA2, O43464): 3.53; pKd (FRMPD2_3, Q68DX3): below the threshold; pKd (Inadl_8, Q8NI35): below the threshold; pKd (SNTG2, Q9NY99): below the threshold; pKd (Inadl_5, Q8NI35): below the threshold; pKd (Inadl_10, Q8NI35): below the threshold |
